Test results taken from patent publication US20210238279A1 (Johns Hopkins, published 2021).
Positions count from the first letter of the chain named.

What was measured:
Assay in all cases: immunoblot of HEK293 lysates over-expressing FLAG-tagged ZnT homologs
[1] = biological target: T1, human ZnT4 with C-terminal FLAG tag (human, UniProt O14863 1-429)
T1 construct: Commercial HEK293 lysate (Origene), SDS-denatured on immunoblots; not shown: C-terminal FLAG octapeptide
T1 sequence (looked up): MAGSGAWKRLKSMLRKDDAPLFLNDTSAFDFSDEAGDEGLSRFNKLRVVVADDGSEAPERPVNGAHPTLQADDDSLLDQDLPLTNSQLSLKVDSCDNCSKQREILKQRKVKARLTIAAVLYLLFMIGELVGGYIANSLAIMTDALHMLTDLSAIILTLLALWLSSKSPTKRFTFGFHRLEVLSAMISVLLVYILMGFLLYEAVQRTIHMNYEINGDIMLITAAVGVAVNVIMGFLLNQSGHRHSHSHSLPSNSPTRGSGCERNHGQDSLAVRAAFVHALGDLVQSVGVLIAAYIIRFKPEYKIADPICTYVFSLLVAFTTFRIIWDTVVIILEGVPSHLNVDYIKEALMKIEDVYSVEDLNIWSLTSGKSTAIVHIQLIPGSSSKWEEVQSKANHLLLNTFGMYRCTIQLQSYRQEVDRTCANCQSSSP
From the text: (§1) FIG. 7A-7D. mAb binding specificities (FIG. 7A) mAb binding to ZnT8-His immobilized to Ni-NTA plate. Bound mAb20 (red) or mAb39 (magenta) was detected by an HRP-conjugated secondary antibody. Solid lines are least-squares fits of binding datapoints to a one-component binding process. Error bars are standard errors (n=8). (FIG. 7B) SDS-denatured mouse ZnT8-His (labeled as M) and human ZnT8-His (labeled as H) on immunoblots were detected by mAb20 or mAb39 as indicated. […] (FIG. 7C) Detection of endogenous human ZnT8 in EndoC-βH cells by mAb20 or […] immunoblotting. An equal amount of EndoC-βH lysate (5 μg total protein) was loaded to each lane. (FIG. 7D) Immunoblotting of HEK lysates with or with over-expression of a ZnT homolog as indicated. An approximately equal amount of total lysate protein (5 μg) was located to each lane, probed by either mAb20, mAb39, or anti-FALG antibody as indicated. FIG. 8. HTRF response to human ZnT8, mouse ZnT8 and human ZnT3.
(§2) Immunoblotting. SDS-solubilized cell lysate of EndoC-β cells or HEK293 cells over-expressing ZnT8 was subjected to SDS-PAGE and probed with a 1:3000 mAb20 or mAb39, followed by 1:3000 anti-mouse HRP-conjugated secondary antibody (GE Healthcare cat. #NA931V). A duplicated gel was Coomassie-stained to show an equal protein loading for each lane ([…]). To compare the mAb20 or mAb39 reactivities to different ZnT homolog, we used commercial HEK293 lysates with lentivirus-mediated over-expression of ZnT1, ZnT2, ZnT3, ZnT4, ZnT7, ZnT8, ZnT10, each is tagged by a Flag tag at the C-terminus (Origene, catalog nos. LY500001, LC412033, LC423751, LC401170, LY415673, LC428544, LC406320, and LC412886). Approximately equal amounts of total protein (5 μg) was loaded to each lane, and then probed with mAb20, mAb39, or anti-FLAG antibody (Origene, catalog no. TA50011-100) as above. The expression levels of ZnT homologs varied with ZnT1 most abundantly expressed.

[2] = biological target: T2, human ZnT7 with C-terminal FLAG tag (human, UniProt Q8NEW0 1-376)
T2 construct: Commercial HEK293 lysate (Origene), SDS-denatured on immunoblots; not shown: C-terminal FLAG octapeptide
T2 sequence (looked up): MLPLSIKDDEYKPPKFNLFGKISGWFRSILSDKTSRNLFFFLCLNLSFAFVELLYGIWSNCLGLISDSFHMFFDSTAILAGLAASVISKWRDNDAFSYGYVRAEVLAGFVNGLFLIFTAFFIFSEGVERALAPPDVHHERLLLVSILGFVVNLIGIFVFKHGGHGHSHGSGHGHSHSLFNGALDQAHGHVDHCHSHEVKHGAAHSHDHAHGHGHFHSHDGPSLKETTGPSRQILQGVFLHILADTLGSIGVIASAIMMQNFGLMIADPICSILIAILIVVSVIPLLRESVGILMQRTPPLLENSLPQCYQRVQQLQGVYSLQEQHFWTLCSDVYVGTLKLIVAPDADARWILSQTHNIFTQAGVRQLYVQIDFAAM
From the text: as §1, §2

[3] = biological target: T3, human ZnT3 with C-terminal FLAG tag (human, UniProt Q99726 1-388)
T3 construct: Commercial HEK293 lysate (Origene), SDS-denatured on immunoblots; not shown: C-terminal FLAG octapeptide
T3 sequence (looked up): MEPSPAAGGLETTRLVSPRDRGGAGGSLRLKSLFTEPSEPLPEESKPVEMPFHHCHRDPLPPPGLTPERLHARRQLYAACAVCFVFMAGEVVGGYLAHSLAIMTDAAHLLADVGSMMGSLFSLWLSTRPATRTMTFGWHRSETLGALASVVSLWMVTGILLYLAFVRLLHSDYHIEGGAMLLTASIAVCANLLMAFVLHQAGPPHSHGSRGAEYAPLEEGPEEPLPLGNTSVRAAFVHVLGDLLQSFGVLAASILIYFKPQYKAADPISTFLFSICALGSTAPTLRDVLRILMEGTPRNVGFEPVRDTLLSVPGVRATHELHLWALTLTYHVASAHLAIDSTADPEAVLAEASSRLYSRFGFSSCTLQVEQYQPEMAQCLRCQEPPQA
From the text: as §1, §2

[4] = biological target: T4, human ZnT1 with C-terminal FLAG tag (human, UniProt Q9Y6M5 1-507)
T4 construct: Commercial HEK293 lysate (Origene), SDS-denatured on immunoblots; not shown: C-terminal FLAG octapeptide
T4 sequence (looked up): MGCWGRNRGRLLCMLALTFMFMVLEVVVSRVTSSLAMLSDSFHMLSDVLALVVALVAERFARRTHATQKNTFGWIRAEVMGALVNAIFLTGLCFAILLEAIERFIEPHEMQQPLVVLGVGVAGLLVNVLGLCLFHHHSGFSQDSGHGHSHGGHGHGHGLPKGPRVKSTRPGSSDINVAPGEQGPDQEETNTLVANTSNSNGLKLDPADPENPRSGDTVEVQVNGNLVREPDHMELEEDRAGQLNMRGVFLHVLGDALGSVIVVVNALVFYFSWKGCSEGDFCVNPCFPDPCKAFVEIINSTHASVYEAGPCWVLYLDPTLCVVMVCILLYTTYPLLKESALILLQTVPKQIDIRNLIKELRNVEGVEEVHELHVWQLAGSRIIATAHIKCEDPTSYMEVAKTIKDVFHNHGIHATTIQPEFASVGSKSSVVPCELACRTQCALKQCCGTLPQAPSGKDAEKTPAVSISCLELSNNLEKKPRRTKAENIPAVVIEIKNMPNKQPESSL
From the text: as §1, §2

Measured: binding result

B1: mAb20 (antibody, V domains shown)
VH: QIQLVQSGPELKKPGETVKISCKASGYIFTNYPMHWVKQAPGKGLKWMGWINTYSGVPTHADDFKGRFAFSLETSANSAFLQINNLKNEDTATYFCTRSRITPTGGYAMDYWGQGTSVTVSS
VL: DVVMTQTPLSLPVSLGDQASISCRSSQSLVHSNGNTYLHWYLQKPGQSPNLLISKVSNRFSGVPERFSGSGSGTDFTLKISRVEAEDLGVYFCSQNTHVPWTFGGGTKLEIKR
notes: Mouse hybridoma mAb purified on protein A/G; In some assays it was labelled with Alexa Fluor 488 or terbium cryptate; also called monoclonal antibody mAb20; anti-ZnT8 mAb20
no binding: all assays above

B2: mAb39 (antibody, V domains shown)
VH: QVQLQQPGAELVKPGASVKLSCKASGYSFTTYWMHWVKQRPGQGLEWVGDINPRNGRTNYNEKSKSKATLTVDISSSTVYMQVSSLTSEDSAVYYCAIWSGAMDYWGPGTSVTVSS
VL: B1 VL with A19P, R24K, S32N, N50K, S54Y, E65D, N96T, W101P
notes: Mouse hybridoma mAb purified on protein A/G; In some assays it was labelled with Alexa Fluor 555 or d2; also called monoclonal antibody mAb39; anti-ZnT8 mAb39
no binding: all assays above
